Source: patent US20240042018A1 (University of Washington, published 2024)

B1: SEQ ID NO 71 (I53-50A_5gly) (designed binder)
chain: EELFKKHKIVAVLRANSVEEAIEKAVAVFAGGVHLIEITFTVPNATTVIKALSVLKEKGAIIGAGTVTSVEYANETVESGAEFIVSPHLDEEISNFTKEKGVFYMPGVMTPTELVKAMKLNVTILKLFPGEVVGPQFVKAMKGPFHNATFVPTGGVNLDNVCEWFKAGVLAVGVGSALVKGTPDEVREKAKAFVEKIRGC
modifications: N-linked glycans at sequons 45-NAT-47; 73-YANET-77; 96-NFT-98; 122-NVT-124; 146-FHNAT-150
B2: SEQ ID NO 73 (I53-50A_6gly) (designed binder)
chain: EELFKKHKIVAVLRANSVEEAIEKAVAVFAGGVHLIEITFTVPNATTVIKALSVLKEKGAIIGAGTVFSNETCRKAVESGAEFIVSPHLDEEISNFTKEKNVTYMPGVMTPTELVKAMKLNVTILKLFPGEVVGPQFVKAMKGPFHNATFVPTGGVNLDNVCEWFKAGVLAVGVGSALVKGTPDEVREKAKAFVEKIRGC
modifications: N-linked glycans at sequons 45-NAT-47; 69-FSNET-73; 96-NFT-98; 102-NVT-104; 122-NVT-124; 146-FHNAT-150
B3: SEQ ID NO 74 (I53-50A_6gly) (designed binder)
chain: EELFKKHKIVAVLRANSVEEAIEKAVAVFAGGVHLIEITFTVPNATTVIKALSVLKEKGAIIGAGTVTSVEQCRKAVESNATFIVSPHLDEEISNFTKEKNVTYMPGVMTPTELVKAMKLNVTILKLFPGEVVGPQFVKAMKGPFHNATFVPTGGVNLDNVCEWFKAGVLAVGVGSALVKGTPDEVREKAKAFVEKIRGC
modifications: N-linked glycans at sequons 45-NAT-47; 81-NAT-83; 96-NFT-98; 102-NVT-104; 122-NVT-124; 146-FHNAT-150
B4: SEQ ID NO 69 (I53-50A_4gly) (designed binder)
chain: EELFKKHKIVAVLRANSVEEAIEKAVAVFAGGVHLIEITFTVPDADTVIKALSVLKEKGAIIGAGTVTSVEQCRKAVESGAEFIVSPHLDEEISNFTKEKNVTYMPGVMTPTELVKAMKLNVTILKLFPGEVVGPQFVKAMKGPFHNATFVPTGGVNLDNVCEWFKAGVLAVGVGSALVKGTPDEVREKAKAFVEKIRGC
modifications: N-linked glycans at sequons 96-NFT-98; 102-NVT-104; 122-NVT-124; 146-FHNAT-150
B5: SEQ ID NO 68 (I53-50A_4gly) (designed binder)
chain: EELFKKHKIVAVLRANSVEEAIEKAVAVFAGGVHLIEITFTVPNATTVIKALSVLKEKGAIIGAGTVTSVEYANETVESNATFIVSPHLDEEISNFTKEKGVFYMPGVMTPTELVKAMKLGHTILKLFPGEVVGPQFVKAMKGPFPNVKFVPTGGVNLDNVCEWFKAGVLAVGVGSALVKGTPDEVREKAKAFVEKIRGC
modifications: N-linked glycans at sequons 45-NAT-47; 73-YANET-77; 81-NAT-83; 96-NFT-98
B6: SEQ ID NO 70 (I53-50A_4gly) (designed binder)
chain: EELFKKHKIVAVLRANSVEEAIEKAVAVFAGGVHLIEITFTVPDADTVIKALSVLKEKGAIIGAGTVFSNETCRKAVESNATFIVSPHLDEEISNFTKEKNVTYMPGVMTPTELVKAMKLGHTILKLFPGEVVGPQFVKAMKGPFPNVKFVPTGGVNLDNVCEWFKAGVLAVGVGSALVKGTPDEVREKAKAFVEKIRGC
modifications: N-linked glycans at sequons 69-FSNET-73; 81-NAT-83; 96-NFT-98; 102-NVT-104
B7: I53-50A_4gly trimer (designed binder)
chain: EELFKKHKIVAVLRANSVEEAIEKAVAVFAGGVHLIEITFTVPNATTVIKALSVLKEKGAIIGAGTVTSVEYANETVESGAEFIVSPHLDEEISNFTKEKGVFYMPGVMTPTELVKAMKLGHTILKLFPGEVVGPQFVKAMKGPFHNATFVPTGGVNLDNVCEWFKAGVLAVGVGSALVKGTPDEVREKAKAFVEKIRGCLEEQKLISEEDLHHHHHH
modifications: N-linked glycans at sequons 45-NAT-47; 73-YANET-77; 96-NFT-98; 146-FHNAT-150
B8: SEQ ID NO 49 (I53_dn5A_3gly) (designed binder)
chain: KYDGSKLRIGILHARGNAEIILELVLGALKRLQEFGVKRENIIIETVPGSFELPYGSKLFVEKQKRLGKPLDAIIPIGVLIRNETAHFDYIADSTTHQLMKLNFELGIPVIFGVLTTNDTEQAEERAGTNATNHGEDWGAAAVEMATKFNLEEQKLISEEDLHHHHHH
modifications: N-linked glycans at sequons 83-NET-85; 118-NDT-120; 130-NAT-132
B9: SEQ ID NO 55 (I53_dn5A_2gly) (designed binder)
chain: KYDGSKLRIGILHARGNAEIILELVLGALKRLQEFGVKRENIIIETVPGSFELPYGSKLFVEKQKRLGKPLDAIIPIGVLIRGSTAHFDYIADSTTHQLMKLNFELGIPVIFGVLTTESNETAEERAGTNATNHGEDWGAAAVEMATKFNLEEQKLISEEDLHHHHHH
modifications: N-linked glycans at sequons 120-NET-122; 130-NAT-132
B10: SEQ ID NO 51 (I53_dn5A_3gly) (designed binder)
chain: KYDGSKLRIGILHARGNAEIILELVLGALKRLQEFGVKRENIIIETVPGSFELPYGSKLFVEKQKRLGKPLDAIIPIGVLIRGNDTHFDYIADSTTHQLMKLNFELGIPVIFGVLTTNDTEQAEERAGTNATNHGEDWGAAAVEMATKFNLEEQKLISEEDLHHHHHH
modifications: N-linked glycans at sequons 84-NDT-86; 118-NDT-120; 130-NAT-132
B11: SEQ ID NO 50 (I53_dn5A_3gly) (designed binder)
chain: KYDGSKLRIGILHARGNAEIILELVLGALKRLQEFGVKRENIIIETVPGSFELPYGSKLFVEKQKRLGKPLDAIIPIGVLIRGNDTHFDYIADSTTHQLMKLNFELGIPVIFGVLTTESNETAEERAGTKNGTHGEDWGAAAVEMATKFNLEEQKLISEEDLHHHHHH
modifications: N-linked glycans at sequons 84-NDT-86; 120-NET-122; 131-NGT-133
B12: SEQ ID NO 53 (I53_dn5A_2gly) (designed binder)
chain: KYDGSKLRIGILHARGNAEIILELVLGALKRLQEFGVKRENIIIETVPGSFELPYGSKLFVEKQKRLGKPLDAIIPIGVLIRGNDTHFDYIADSTTHQLMKLNFELGIPVIFGVLTTESDEQAEERAGTKNGTHGEDWGAAAVEMATKFNLEEQKLISEEDLHHHHHH
modifications: N-linked glycans at sequons 84-NDT-86; 131-NGT-133
B13: SEQ ID NO 52 (I53_dn5A_2gly) (designed binder)
chain: KYDGSKLRIGILHARGNAEIILELVLGALKRLQEFGVKRENIIIETVPGSFELPYGSKLFVEKQKRLGKPLDAIIPIGVLIRNDTAHFDYIADSTTHQLMKLNFELGIPVIFGVLTTESDEQAEERAGTNATNHGEDWGAAAVEMATKFNLEEQKLISEEDLHHHHHH
modifications: N-linked glycans at sequons 83-NDT-85; 130-NAT-132
B14: I53_dn5A_1C5kPEG pentamer (designed binder)
chain: MGKYDGSKLRIGILHARGNAEIILALVLGALKRLQEFGVKRENIIIETVPGSFELPYGSKLFVEKQKRLGKPLDAIIPIGVLIRGSTPHFDYIADSTTHQLMKLNFELGIPVIFGVITADTCEQAEARAGLIEGKMHNHGEDWGAAAVEMATKFNGGWELQLEGSHHHHHH
B15: SEQ ID NO 77 (I53-50A_7gly) (designed binder)
chain: EELFKKHKIVAVLRANSVEEAIEKAVAVFAGGVHLIEITFTVPNATTVIKALSVLKEKGAIIGAGTVTSVEYANETVESNATFIVSPHLDEEISNFTKEKNVTYMPGVMTPTELVKAMKLNVTILKLFPGEVVGPQFVKAMKGPFHNATFVPTGGVNLDNVCEWFKAGVLAVGVGSALVKGTPDEVREKAKAFVEKIRGC
modifications: N-linked glycans at sequons 45-NAT-47; 73-YANET-77; 81-NAT-83; 96-NFT-98; 102-NVT-104; 122-NVT-124; 146-FHNAT-150
B16: SEQ ID NO 76 (I53-50A_7gly) (designed binder)
chain: EELFKKHKIVAVLRANSVEEAIEKAVAVFAGGVHLIEITFTVPNATTVIKALSVLKEKGAIIGAGTVFSNETCRKAVESNATFIVSPHLDEEISNFTKEKNVTYMPGVMTPTELVKAMKLNVTILKLFPGEVVGPQFVKAMKGPFHNATFVPTGGVNLDNVCEWFKAGVLAVGVGSALVKGTPDEVREKAKAFVEKIRGC
modifications: N-linked glycans at sequons 45-NAT-47; 69-FSNET-73; 81-NAT-83; 96-NFT-98; 102-NVT-104; 122-NVT-124; 146-FHNAT-150
B17: SEQ ID NO 75 (I53-50A_6gly) (designed binder)
chain: EELFKKHKIVAVLRANSVEEAIEKAVAVFAGGVHLIEITFTVPNATTVIKALSVLKEKGAIIGAGTVTSVEYANETVESGAEFIVSPHLDEEISNFTKEKNVTYMPGVMTPTELVKAMKLNVTILKLFPGEVVGPQFVKAMKGPFHNATFVPTGGVNLDNVCEWFKAGVLAVGVGSALVKGTPDEVREKAKAFVEKIRGC
modifications: N-linked glycans at sequons 45-NAT-47; 73-YANET-77; 96-NFT-98; 102-NVT-104; 122-NVT-124; 146-FHNAT-150
B18: I53_dn5A_D120C pentamer coupled to 1 kDa PEG (designed binder)
chain: MGKYDGSKLRIGILHARGNAEIILALVLGALKRLQEFGVKRENIIIETVPGSFELPYGSKLFVEKQKRLGKPLDAIIPIGVLIRGSTPHFDYIADSTTHQLMKLNFELGIPVIFGVITADTCEQAEARAGLIEGKMHNHGEDWGAAAVEMATKFNGGWELQLEGSHHHHHH
B19: I53_dn5A_D120C pentamer coupled to 2 kDa PEG (designed binder)
chain: MGKYDGSKLRIGILHARGNAEIILALVLGALKRLQEFGVKRENIIIETVPGSFELPYGSKLFVEKQKRLGKPLDAIIPIGVLIRGSTPHFDYIADSTTHQLMKLNFELGIPVIFGVITADTCEQAEARAGLIEGKMHNHGEDWGAAAVEMATKFNGGWELQLEGSHHHHHH
B20: I53_dn5A_S84C_D120C pentamer coupled to 5 kDa PEG (designed binder)
chain: MGKYDGSKLRIGILHARGNAEIILALVLGALKRLQEFGVKRENIIIETVPGSFELPYGSKLFVEKQKRLGKPLDAIIPIGVLIRGCTPHFDYIADSTTHQLMKLNFELGIPVIFGVITADTCEQAEARAGLIEGKMHNHGEDWGAAAVEMATKFNGGWELQLEGSHHHHHH
modifications: 5 kDa PEG-maleimide on Cys84 and Cys120
B21: I53_dn5A_2C2kPEG pentamer (designed binder)
chain: MGKYDGSKLRIGILHARGNAEIILALVLGALKRLQEFGVKRENIIIETVPGSFELPYGSKLFVEKQKRLGKPLDAIIPIGVLIRGCTPHFDYIADSTTHQLMKLNFELGIPVIFGVITADTCEQAEARAGLIEGKMHNHGEDWGAAAVEMATKFNGGWELQLEGSHHHHHH
B22: I53_dn5A_S84C_D120C pentamer coupled to 1 kDa PEG (designed binder)
chain: MGKYDGSKLRIGILHARGNAEIILALVLGALKRLQEFGVKRENIIIETVPGSFELPYGSKLFVEKQKRLGKPLDAIIPIGVLIRGCTPHFDYIADSTTHQLMKLNFELGIPVIFGVITADTCEQAEARAGLIEGKMHNHGEDWGAAAVEMATKFNGGWELQLEGSHHHHHH
B23: I53_dn5Acp7 PAS pentamer (designed binder)
chain: MGSHHHHHHGSDEQAEERAGTKAGNHGEDWGAAAVEMATKFNGSGGSGKYDGSKLRIGILHARGNAEIILELVLGALKRLQEFGVKRENIIIETVPGSFELPYGSKLFVEKQKRLGKPLDAIIPIGVLIRGSTAHFDYIADSTTHQLMKLNFELGIPVIFGVLTTESGGSASPAAPAPASPAAPAPSAPAAASPAAPAPASPAAPAPSAPAAASPAAPAPASPAAPAPSAPAA
B24: I53_dn5Acp7 pentamer with ELP fused to the C terminus (designed binder)
chain: MGSHHHHHHGSDEQAEERAGTKAGNHGEDWGAAAVEMATKFNGSGGSGKYDGSKLRIGILHARGNAEIILELVLGALKRLQEFGVKRENIIIETVPGSFELPYGSKLFVEKQKRLGKPLDAIIPIGVLIRGSTAHFDYIADSTTHQLMKLNFELGIPVIFGVLTTES

These binders were tested against I53-50B.4PT1 pentamer (assay: nanoparticle assembly grade, Table 3).

| Binder | binding result |
| --- | --- |
| B1 | binds |
| B2 | binds |
| B3 | binds |
| B4 | binds |
| B5 | binds |
| B6 | binds |
| B7 | binds |

Target: T1, I53_dn5B trimer
T1 chain: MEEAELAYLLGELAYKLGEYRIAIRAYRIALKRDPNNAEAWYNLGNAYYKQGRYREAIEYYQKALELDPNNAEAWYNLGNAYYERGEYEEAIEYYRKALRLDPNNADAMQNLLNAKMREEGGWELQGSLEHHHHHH
Assay: nanoparticle assembly grade, Table 3

| Binder | binding result |
| --- | --- |
| B8 | binds |
| B9 | binds |
| B10 | binds |
| B11 | binds |
| B12 | binds |
| B13 | binds |

Target: T1, I53_dn5B trimer
Assay: in vitro nanoparticle assembly, SEC and SDS-PAGE

| Binder | binding result |
| --- | --- |
| B14 | binds |

These binders were tested against I53-50B.4PT1 pentamer (assay: in vitro nanoparticle assembly (Table 3; '-' means no nanoparticle assembly)).

| Binder | binding result |
| --- | --- |
| B15 | no binding |
| B16 | no binding |
| B17 | no binding |

Target: T1, I53_dn5B trimer
Assay: in vitro nanoparticle assembly, SEC

| Binder | binding result |
| --- | --- |
| B18 | binds |
| B19 | binds |
| B20 | binds |
| B21 | binds |
| B22 | binds |
| B23 | binds |
| B24 | binds |
